This passage reports Kd and binding signal results from paper PMC11797056, “The ATPase activity of yeast chromosome axis protein Hop1 affects the frequency of meiotic crossovers” (Nucleic Acids Research, 2024).

For series [1], the target named is T1, Hop1 K65A,N67Q (Saccharomyces cerevisiae, UniProt P20050 1-605, K65A;N67Q).
T1 sequence: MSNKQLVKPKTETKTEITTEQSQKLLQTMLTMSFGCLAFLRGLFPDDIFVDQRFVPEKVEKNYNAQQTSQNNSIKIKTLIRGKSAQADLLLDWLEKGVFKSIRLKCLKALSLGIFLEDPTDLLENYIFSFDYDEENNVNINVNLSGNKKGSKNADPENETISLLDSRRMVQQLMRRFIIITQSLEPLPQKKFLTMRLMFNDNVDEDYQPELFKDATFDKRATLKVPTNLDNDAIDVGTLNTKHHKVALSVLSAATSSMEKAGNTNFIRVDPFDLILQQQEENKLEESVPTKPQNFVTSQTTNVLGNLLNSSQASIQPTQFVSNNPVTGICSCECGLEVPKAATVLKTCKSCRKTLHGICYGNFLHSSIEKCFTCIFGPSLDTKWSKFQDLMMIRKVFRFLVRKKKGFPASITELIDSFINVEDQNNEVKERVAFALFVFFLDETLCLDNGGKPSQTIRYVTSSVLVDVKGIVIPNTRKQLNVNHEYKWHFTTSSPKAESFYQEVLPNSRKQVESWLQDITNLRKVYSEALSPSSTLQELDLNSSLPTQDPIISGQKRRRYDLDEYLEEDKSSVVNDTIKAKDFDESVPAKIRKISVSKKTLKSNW
Briefly: MST; 25 nM HJ; EMSA: 25 mM HEPES pH 7.5, 0.5 nM 32P-HJ, 37 C 15 min, 8% PAGE in TBE (25 mM Tris base pH 8.0, 25 mM boric acid, 0.5 mM EDTA) at 4 C; MST: 25 nM 6-FAM HJ, buffer not in material. The settings on record: protein: recombinant; tags: His6 (pET28a); label: 5'-6FAM on HJ02; four-way junction of 4 strands. A general note: A gel shift assay detects complexes by their altered migration in electrophoresis.

The target in series [2] is T1, Hop1 K65A,N67Q. Briefly: EMSA; 0.5 nM HJ; EMSA: 25 mM HEPES pH 7.5, 0.5 nM 32P-HJ, 37 C 15 min, 8% PAGE in TBE (25 mM Tris base pH 8.0, 25 mM boric acid, 0.5 mM EDTA) at 4 C; MST: 25 nM 6-FAM HJ, buffer not in material. The settings on record: protein: recombinant; tags: His6 (pET28a); label: 5'-32P on HJ02; four-way junction of 4 strands.

B1: Holliday junction (HJ), 6-FAM (structured_DNA)
DNA 1: GACGCTGCCGAATTCTACCAGTGCCTTGCTAGGACATCTTTGCCCACCTGCCGGTTCACCC
DNA 2: TGGGTGAACCTGCAGGTGGGCAAAGATGTCCTAGCAATGTAATCGTCAAAGCTTTATGCCGTT
DNA 3: CAACGGCATAAAGCTTGACGATTACATTGCTAGGACATGCTGTCTAGAGGATCCGACTATCGA
DNA 4: ATCGATAGTCGGATCCTCTAGACAGCATGTCCTAGCAAGGCACTGGTAGAATTCGGCAGCGT
As usually defined, the Kd is the constant that tells how readily two partners part at equilibrium. With B1, the Kd in the series with Hop1 K65A,N67Q [1] was found to be 495 nM.

B2: Holliday junction (HJ), 32P (structured_DNA)
DNA 1: B1 DNA 1
DNA 2: B1 DNA 2
DNA 3: B1 DNA 3
DNA 4: B1 DNA 4
As to B2, in the series with Hop1 K65A,N67Q [2], the binding signal is ~1.7 fold lower affinity than WT.
